# Measurements: IntAct's records for PubMed 28007894
# B1: Serine/threonine/tyrosine-interacting protein (Homo sapiens), Q8WUJ0 (parent)
# chain: MEDVKLEFPSLPQCKEDAEEWTYPMRREMQEILPGLFLGPYSSAMKSKLPVLQKHGITHIICIRQNIEANFIKPNFQQLFRYLVLDIADNPVENIIRFFPMTKEFIDGSLQMGGKVLVHGNAGISRSAAFVIAYIMETFGMKYRDAFAYVQERRFCINPNAGFVHQLQEYEAIYLAKLTIQMMSPLQIERSLSVHSGTTGSLKRTHEEEDDFGTMQVATAQNG
# Variants of: B1
# Settings: with FBXW7, Q969H0-1
# Sequence of FBXW7, Q969H0-1 (Q969H0 whole entry): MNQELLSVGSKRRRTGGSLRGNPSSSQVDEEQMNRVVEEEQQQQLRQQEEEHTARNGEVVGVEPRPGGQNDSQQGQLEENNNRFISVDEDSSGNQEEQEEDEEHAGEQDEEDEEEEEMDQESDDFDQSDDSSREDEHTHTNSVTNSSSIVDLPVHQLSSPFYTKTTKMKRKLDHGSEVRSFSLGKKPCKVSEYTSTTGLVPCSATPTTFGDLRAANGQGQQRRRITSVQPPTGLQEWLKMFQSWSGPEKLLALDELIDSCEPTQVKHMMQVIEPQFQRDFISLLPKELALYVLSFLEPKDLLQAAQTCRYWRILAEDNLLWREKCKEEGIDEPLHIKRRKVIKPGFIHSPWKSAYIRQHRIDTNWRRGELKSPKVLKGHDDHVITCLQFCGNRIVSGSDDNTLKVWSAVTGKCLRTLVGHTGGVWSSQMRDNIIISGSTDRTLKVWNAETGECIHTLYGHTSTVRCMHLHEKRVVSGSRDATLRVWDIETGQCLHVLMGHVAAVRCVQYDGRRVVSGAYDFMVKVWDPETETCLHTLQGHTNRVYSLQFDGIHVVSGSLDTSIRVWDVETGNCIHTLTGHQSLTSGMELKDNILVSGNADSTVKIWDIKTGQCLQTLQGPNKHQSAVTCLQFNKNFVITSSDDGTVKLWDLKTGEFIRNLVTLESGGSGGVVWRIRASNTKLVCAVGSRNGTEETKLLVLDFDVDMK
row,effect of a mutation on the interaction,Variant
1,with no effect,MEDVKLEFPSLPQCKEDAEEWTYPMRREMQEILPGLFLGPYSSAMKSKLPVLQKHGITHIICIRQNIEANFIKPNFQQLFRYLVLDIADNPVENIIRFFPMTKEFIDGSLQMGGKVLVHCNAGISRSAAFVIAYIMETFGMKYRDAFAYVQERRFCINPNAGFVHQLQEYEAIYLAKLTIQMMSPLQIERSLSVHSGTTGSLKRTHEEEDDFGTMQVATAQNG [G120C]
